# Laboratory results reported in paper PMC4625211, “Putative Breast Cancer Driver Mutations in TBX3 Cause Impaired Transcriptional Repression”.
# T1: GST-TBX3(1-342) TBX3dm (human, UniProt O15119 1-342, G129A;R130S)
# T1 sequence: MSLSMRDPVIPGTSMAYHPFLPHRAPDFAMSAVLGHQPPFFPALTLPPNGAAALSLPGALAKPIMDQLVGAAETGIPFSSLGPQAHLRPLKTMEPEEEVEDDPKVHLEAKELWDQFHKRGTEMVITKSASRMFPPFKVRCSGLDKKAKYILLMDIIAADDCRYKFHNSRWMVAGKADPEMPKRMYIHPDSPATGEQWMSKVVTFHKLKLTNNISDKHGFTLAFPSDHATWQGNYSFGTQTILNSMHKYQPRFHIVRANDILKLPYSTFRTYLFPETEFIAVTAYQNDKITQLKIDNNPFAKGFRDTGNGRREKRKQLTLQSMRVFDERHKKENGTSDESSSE
# B1: palindromic Brachyury/T-box consensus oligonucleotide (24 bp) (dsDNA)
# DNA 1: AATTTCACACCTAGGTGTGAAATT
# DNA 2: AATTTCACACCTAGGTGTGAAATT
# Molecular target: T1, GST-TBX3(1-342) TBX3dm
# Experiment: EMSA; 20 mM HEPES (pH not given), 100 mM KCl, 1 mM DTT, 0.25 mM EDTA, 0.01% NP-40, 1 mM MgCl2, 8% glycerol, 100 ug/ml BSA, 1 mg/ml poly(dI-dC), 15 C, 1 h; 6% gel, 1x
# Settings: protein: recombinant; tags: N-terminal GST (pGEX-2TK); label: 5' digoxigenin; blunt; self-complementary palindrome
binder,measurement,value
B1,binding result,no binding
